T1: human amylin receptor (AMY3) on CHO-K1/Gal5/AMY3 cells (human, UniProt P30988 25-474; O60896 24-148)
T1 sequence (looked up) 1: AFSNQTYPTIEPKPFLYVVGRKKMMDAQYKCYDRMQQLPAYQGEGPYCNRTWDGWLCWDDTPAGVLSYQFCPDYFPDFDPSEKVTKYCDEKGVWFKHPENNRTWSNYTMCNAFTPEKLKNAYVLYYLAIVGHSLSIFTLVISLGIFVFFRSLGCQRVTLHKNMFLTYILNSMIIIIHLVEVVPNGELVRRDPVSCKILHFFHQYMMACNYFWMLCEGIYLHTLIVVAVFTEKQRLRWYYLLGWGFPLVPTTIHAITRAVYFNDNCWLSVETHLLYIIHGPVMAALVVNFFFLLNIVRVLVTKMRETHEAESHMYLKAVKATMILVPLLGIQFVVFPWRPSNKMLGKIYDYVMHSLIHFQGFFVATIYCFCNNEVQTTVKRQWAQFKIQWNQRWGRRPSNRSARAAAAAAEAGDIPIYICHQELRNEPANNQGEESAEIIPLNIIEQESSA
T1 sequence (looked up) 2: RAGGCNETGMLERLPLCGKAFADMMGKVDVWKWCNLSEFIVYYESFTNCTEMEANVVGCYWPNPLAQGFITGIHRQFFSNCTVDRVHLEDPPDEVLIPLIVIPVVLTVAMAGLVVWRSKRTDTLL

T2: human amylin receptors (Homo sapiens, UniProt O60896+P30988)
T2 sequence (P30988 25-474): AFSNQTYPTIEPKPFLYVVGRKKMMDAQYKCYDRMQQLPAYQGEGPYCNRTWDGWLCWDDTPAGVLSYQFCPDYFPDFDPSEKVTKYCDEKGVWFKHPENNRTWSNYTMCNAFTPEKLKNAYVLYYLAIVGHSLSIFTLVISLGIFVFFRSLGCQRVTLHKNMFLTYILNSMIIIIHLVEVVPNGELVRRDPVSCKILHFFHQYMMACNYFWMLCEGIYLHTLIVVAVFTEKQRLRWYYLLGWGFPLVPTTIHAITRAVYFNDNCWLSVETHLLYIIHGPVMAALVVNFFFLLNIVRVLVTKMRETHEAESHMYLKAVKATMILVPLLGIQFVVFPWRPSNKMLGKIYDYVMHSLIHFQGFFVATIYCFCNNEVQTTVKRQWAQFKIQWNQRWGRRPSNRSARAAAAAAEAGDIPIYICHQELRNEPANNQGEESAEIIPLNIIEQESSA
T2 sequence (O60896 24-148 partner): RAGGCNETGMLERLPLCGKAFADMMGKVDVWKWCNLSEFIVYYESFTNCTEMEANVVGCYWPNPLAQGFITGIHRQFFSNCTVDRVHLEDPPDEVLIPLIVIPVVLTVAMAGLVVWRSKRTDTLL

B1: calcitonin derivative M54 (peptide)
peptide: {C20 diacid}-DASQLSTAVLGRLSEELHRLQDYPRTDVGSGSP-NH2
SMILES: CC(C)C[C@H](NC(=O)[C@H](CCCNC(=N)N)NC(=O)CNC(=O)[C@H](CC(C)C)NC(=O)[C@@H](NC(=O)[C@H](C)NC(=O)[C@@H](NC(=O)[C@H](CO)NC(=O)[C@H](CC(C)C)NC(=O)[C@H](CCC(N)=O)NC(=O)[C@H](CO)NC(=O)[C@H](C)NC(=O)[C@H](CC(=O)O)NC(=O)CCCCCCCCCCCCCCCCCCC(=O)O)[C@@H](C)O)C(C)C)C(=O)N[C@@H](CO)C(=O)N[C@@H](CCC(=O)O)C(=O)N[C@@H](CCC(=O)O)C(=O)N[C@@H](CC(C)C)C(=O)N[C@@H](Cc1c[nH]cn1)C(=O)N[C@@H](CCCNC(=N)N)C(=O)N[C@@H](CC(C)C)C(=O)N[C@@H](CCC(N)=O)C(=O)N[C@@H](CC(=O)O)C(=O)N[C@@H](Cc1ccc(O)cc1)C(=O)N1CCC[C@H]1C(=O)N[C@@H](CCCNC(=N)N)C(=O)N[C@H](C(=O)N[C@@H](CC(=O)O)C(=O)N[C@H](C(=O)NCC(=O)N[C@@H](CO)C(=O)NCC(=O)N[C@@H](CO)C(=O)N1CCC[C@H]1C(N)=O)C(C)C)[C@@H](C)O
B2: calcitonin derivative M37 (peptide)
peptide: {C20 diacid-γGlu}-KSQLSTDVLGRLSQELHRLQDYPRTDVGSGSP-NH2
SMILES: CC(C)C[C@H](NC(=O)[C@H](CCCNC(=N)N)NC(=O)CNC(=O)[C@H](CC(C)C)NC(=O)[C@@H](NC(=O)[C@H](CC(=O)O)NC(=O)[C@@H](NC(=O)[C@H](CO)NC(=O)[C@H](CC(C)C)NC(=O)[C@H](CCC(N)=O)NC(=O)[C@H](CO)NC(=O)[C@H](CCCCN)NC(=O)CC[C@H](NC(=O)CCCCCCCCCCCCCCCCCCC(=O)O)C(=O)O)[C@@H](C)O)C(C)C)C(=O)N[C@@H](CO)C(=O)N[C@@H](CCC(N)=O)C(=O)N[C@@H](CCC(=O)O)C(=O)N[C@@H](CC(C)C)C(=O)N[C@@H](Cc1c[nH]cn1)C(=O)N[C@@H](CCCNC(=N)N)C(=O)N[C@@H](CC(C)C)C(=O)N[C@@H](CCC(N)=O)C(=O)N[C@@H](CC(=O)O)C(=O)N[C@@H](Cc1ccc(O)cc1)C(=O)N1CCC[C@H]1C(=O)N[C@@H](CCCNC(=N)N)C(=O)N[C@H](C(=O)N[C@@H](CC(=O)O)C(=O)N[C@H](C(=O)NCC(=O)N[C@@H](CO)C(=O)NCC(=O)N[C@@H](CO)C(=O)N1CCC[C@H]1C(N)=O)C(C)C)[C@@H](C)O
B3: calcitonin analogue M5 (peptide)
peptide: ASQLSTAVLGRLSQELHRLQDYPRTDVGSGSP-NH2
B4: calcitonin derivative M67 (peptide)
peptide: {C22 diacid-γGlu-AEEA-AEEA-AEEA-AEEA}-ASQLSTAVLGRLSEELHRLQDYPRTDVGSGSP-NH2
SMILES: CC(C)C[C@H](NC(=O)[C@H](CCCNC(=N)N)NC(=O)CNC(=O)[C@H](CC(C)C)NC(=O)[C@@H](NC(=O)[C@H](C)NC(=O)[C@@H](NC(=O)[C@H](CO)NC(=O)[C@H](CC(C)C)NC(=O)[C@H](CCC(N)=O)NC(=O)[C@H](CO)NC(=O)[C@H](C)NC(=O)COCCOCCNC(=O)COCCOCCNC(=O)COCCOCCNC(=O)COCCOCCNC(=O)CC[C@H](NC(=O)CCCCCCCCCCCCCCCCCCCCC(=O)O)C(=O)O)[C@@H](C)O)C(C)C)C(=O)N[C@@H](CO)C(=O)N[C@@H](CCC(=O)O)C(=O)N[C@@H](CCC(=O)O)C(=O)N[C@@H](CC(C)C)C(=O)N[C@@H](Cc1c[nH]cn1)C(=O)N[C@@H](CCCNC(=N)N)C(=O)N[C@@H](CC(C)C)C(=O)N[C@@H](CCC(N)=O)C(=O)N[C@@H](CC(=O)O)C(=O)N[C@@H](Cc1ccc(O)cc1)C(=O)N1CCC[C@H]1C(=O)N[C@@H](CCCNC(=N)N)C(=O)N[C@H](C(=O)N[C@@H](CC(=O)O)C(=O)N[C@H](C(=O)NCC(=O)N[C@@H](CO)C(=O)NCC(=O)N[C@@H](CO)C(=O)N1CCC[C@H]1C(N)=O)C(C)C)[C@@H](C)O

*1 amine or outer side, *2 acyl side, *3 side chain or, on linkers, in order; H or OH if unused. Where a SMILES comes first, the peptide text is derived from it. Where no end group is shown, it is not given here. The star is where a group is joined. C22 diacid = O=C(O)CCCCCCCCCCCCCCCCCCCCC(=O)*; C20 diacid = O=C(O)CCCCCCCCCCCCCCCCCCC(=O)*; γGlu = O=C(O)[C@H](CCC(=O)[*:2])N[*:1]; βAsp = O=C(O)[C@H](CC(=O)[*:2])N[*:1]; AEEA = NCCOCCOCC(=O)O

One experiment deals with T1, human amylin receptor (AMY3) on …. The experiment can be described thus: cell-based or functional assay.
Settings: not given
As for B1, the “EC50/nM, CRE-luciferase in amylin receptor/CRE-luc CHO cells” value stood at 0.017 nM.

Consider B2, for which the “EC50/nM, CRE-luciferase in amylin receptor/CRE-luc CHO cells” value amounted to 0.052 nM. Same read-out and setting: then B3, with 0.033 nM. Same read-out and setting: then B4, with 0.017 nM.

A further experiment deals with T2, human amylin receptors. The experiment can be described thus: Luciferase assay of amylin (amylin receptor/CRE-luc cell line).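 Note: agonist potency from luminescence of cAMP response element-driven luciferase, EC50 derived from a standard curve of signal versus compound concentration.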 Format: cell-based. The note with it: stably transfected amylin receptor/CRE-luc CHO cells (CHO-K1/Gal5/AMY3), 24 hours incubation, luciferase readout.
What is called EC50 is the concentration giving half of the maximal effect. Read a high EC50 as a need for much substance. For `CC(C)C[C@H](NC(=O)[C@H](CCCNC(=N)N)NC(=O)CNC(=O)[C@H](CC(C)C)NC(=O)[C@@H](NC(=O)[C@H](C)NC(=O)[C@@H](NC(=O)[C@H](CO)NC(=O)[C@H](CC(C)C)NC(=O)[C@H](CCC(N)=O)NC(=O)[C@H](CO)NC(=O)[C@H](C)NC(=O)CC[C@H](NC(=O)CCCCCCCCCCCCCCCCCCC(=O)O)C(=O)O)[C@@H](C)O)C(C)C)C(=O)N[C@@H](CO)C(=O)N[C@@H](CCC(N)=O)C(=O)N[C@@H](CCC(=O)O)C(=O)N[C@@H](CC(C)C)C(=O)N[C@@H](Cc1c[nH]cn1)C(=O)N[C@@H](CCCNC(=N)N)C(=O)N[C@@H](CC(C)C)C(=O)N[C@@H](CCC(N)=O)C(=O)N[C@@H](CC(=O)O)C(=O)N[C@@H](Cc1ccc(O)cc1)C(=O)N1CCC[C@H]1C(=O)N[C@@H](CCCNC(=N)N)C(=O)N[C@H](C(=O)N[C@@H](CCC(N)=O)C(=O)N[C@H](C(=O)NCC(=O)N[C@@H](CO)C(=O)NCC(=O)N[C@@H](CO)C(=O)N1CCC[C@H]1C(N)=O)C(C)C)[C@@H](C)O` [M15] ({C20 diacid-γGlu}-ASQLSTAVLGRLSQELHRLQDYPRTQVGSGSP-NH2), a half-maximal effect (EC50) was put at 0.016 nM. As for `CC(C)C[C@H](NC(=O)CC[C@H](NC(=O)CCCCCCCCCCCCCCCCCCC(=O)O)C(=O)O)C(=O)N[C@@H](CO)C(=O)N[C@@H](CCC(N)=O)C(=O)N[C@@H](CC(C)C)C(=O)N[C@@H](CO)C(=O)N[C@H](C(=O)N[C@@H](CC(C)C)C(=O)N[C@H](C(=O)N[C@@H](CC(C)C)C(=O)NCC(=O)N[C@@H](CCCNC(=N)N)C(=O)N[C@@H](CC(C)C)C(=O)N[C@@H](CO)C(=O)N[C@@H](CCC(N)=O)C(=O)N[C@@H](CCC(=O)O)C(=O)N[C@@H](CC(C)C)C(=O)N[C@@H](Cc1c[nH]cn1)C(=O)N[C@@H](CCCNC(=N)N)C(=O)N[C@@H](CC(C)C)C(=O)N[C@@H](CCC(N)=O)C(=O)N[C@@H](CC(=O)O)C(=O)N[C@@H](Cc1ccc(O)cc1)C(=O)N1CCC[C@H]1C(=O)N[C@@H](CCCNC(=N)N)C(=O)N[C@H](C(=O)N[C@@H](CC(=O)O)C(=O)N[C@H](C(=O)NCC(=O)N[C@@H](CO)C(=O)NCC(=O)N[C@@H](CO)C(=O)N1CCC[C@H]1C(N)=O)C(C)C)[C@@H](C)O)C(C)C)[C@@H](C)O` [M25] ({C20 diacid-γGlu}-LSQLSTLVLGRLSQELHRLQDYPRTDVGSGSP-NH2), the EC50 was 0.016 nM. `CC(C)C[C@H](NC(=O)[C@H](CCCNC(=N)N)NC(=O)CNC(=O)[C@H](CC(C)C)NC(=O)[C@@H](NC(=O)[C@H](C)NC(=O)[C@@H](NC(=O)[C@H](CO)NC(=O)[C@H](CC(C)C)NC(=O)[C@H](CCC(N)=O)NC(=O)[C@H](CO)NC(=O)[C@H](C)NC(=O)[C@H](CCC(=O)O)NC(=O)CCCCCCCCCCCCCCCCCCC(=O)O)[C@@H](C)O)C(C)C)C(=O)N[C@@H](CO)C(=O)N[C@@H](CCC(=O)O)C(=O)N[C@@H](CCC(=O)O)C(=O)N[C@@H](CC(C)C)C(=O)N[C@@H](Cc1c[nH]cn1)C(=O)N[C@@H](CCCNC(=N)N)C(=O)N[C@@H](CC(C)C)C(=O)N[C@@H](CCC(N)=O)C(=O)N[C@@H](CC(=O)O)C(=O)N[C@@H](Cc1ccc(O)cc1)C(=O)N1CCC[C@H]1C(=O)N[C@@H](CCCNC(=N)N)C(=O)N[C@H](C(=O)N[C@@H](CC(=O)O)C(=O)N[C@H](C(=O)NCC(=O)N[C@@H](CO)C(=O)NCC(=O)N[C@@H](CO)C(=O)N1CCC[C@H]1C(N)=O)C(C)C)[C@@H](C)O` [M52] ({C20 diacid}-EASQLSTAVLGRLSEELHRLQDYPRTDVGSGSP-NH2): a half-maximal effect (EC50) was put at 0.017 nM. The molecule `CC(C)C[C@H](NC(=O)[C@H](CCCNC(=N)N)NC(=O)CNC(=O)[C@H](CC(C)C)NC(=O)[C@@H](NC(=O)[C@H](C)NC(=O)[C@@H](NC(=O)[C@H](CO)NC(=O)[C@H](CC(C)C)NC(=O)[C@H](CCC(N)=O)NC(=O)[C@H](CO)NC(=O)[C@H](C)NC(=O)C[C@H](NC(=O)CCCCCCCCCCCCCCCCCCC(=O)O)C(=O)O)[C@@H](C)O)C(C)C)C(=O)N[C@@H](CO)C(=O)N[C@@H](CCC(=O)O)C(=O)N[C@@H](CCC(=O)O)C(=O)N[C@@H](CC(C)C)C(=O)N[C@@H](Cc1c[nH]cn1)C(=O)N[C@@H](CCCNC(=N)N)C(=O)N[C@@H](CC(C)C)C(=O)N[C@@H](CCC(N)=O)C(=O)N[C@@H](CC(=O)O)C(=O)N[C@@H](Cc1ccc(O)cc1)C(=O)N1CCC[C@H]1C(=O)N[C@@H](CCCNC(=N)N)C(=O)N[C@H](C(=O)N[C@@H](CC(=O)O)C(=O)N[C@H](C(=O)NCC(=O)N[C@@H](CO)C(=O)NCC(=O)N[C@@H](CO)C(=O)N1CCC[C@H]1C(N)=O)C(C)C)[C@@H](C)O` [M53] ({C20 diacid-βAsp}-ASQLSTAVLGRLSEELHRLQDYPRTDVGSGSP-NH2) came in with an EC50 of 0.017 nM.

The values are drawn from patent EP4692114A1, “CALCITONIN ANALOGUE, AND DERIVATIVE THEREOF AND USE THEREOF” (Hangzhou Sciwind Biosciences Co., Ltd., priority 2023, dated 2024).
